These results are taken from PMC1308866, “Inhibition of HIV derived lentiviral production by TAR RNA binding domain of TAT protein”.

Holding throughout (experiment): EMSA; 0.25 nmol RNA in 10 ul; peptide:RNA molar ratio 0-1
Common to all, as to settings: hairpin
A general note: A gel shift assay detects complexes by their altered migration in electrophoresis.

The target of one data set is T1, Tat-P (HIV, UniProt P69698).
T1 chain: YGRKKRRQRRR

Another data set concerns the target T2, Con-P2.
T2 chain: ARPLEHGSDKAT

A further data set deals with T3, Con-P1.
T3 chain: RRQRRTSKLMKR

As to GCCAGAUCUGAGCCUGGGAGCUCUCUGGC (structured_RNA) [TAR RNA 29mer], the binding result is “binds” with Tat-P, “no binding” with Con-P2 and “no binding” in the data set with Con-P1.
